Here are results for two molecules from paper PMC515284, “Site-specific mutagenesis of Drosophila proliferating cell nuclear antigen enhances its effects on calf thymus DNA polymerase δ” (BMC Biochemistry, 2004).

This assay deals with T1, calf thymus DNA polymerase δ (two-subunit form) (bovine (endogenous in calf thymus), UniProt P28339 1-1106; P49004 1-469).
T1 construct: DNA polymerase δ larger, catalytic subunit p125, calf thymus (bovine); DNA polymerase δ smaller subunit p50, calf thymus (bovine); all experiments used the two-subunit form (p125 and p50); also called pol δ; calf thymus pol δ; source: purified from calf thymus (to apparent homogeneity)
T1 sequence (P28339 whole entry, stated change not applied, chain 1 of 2): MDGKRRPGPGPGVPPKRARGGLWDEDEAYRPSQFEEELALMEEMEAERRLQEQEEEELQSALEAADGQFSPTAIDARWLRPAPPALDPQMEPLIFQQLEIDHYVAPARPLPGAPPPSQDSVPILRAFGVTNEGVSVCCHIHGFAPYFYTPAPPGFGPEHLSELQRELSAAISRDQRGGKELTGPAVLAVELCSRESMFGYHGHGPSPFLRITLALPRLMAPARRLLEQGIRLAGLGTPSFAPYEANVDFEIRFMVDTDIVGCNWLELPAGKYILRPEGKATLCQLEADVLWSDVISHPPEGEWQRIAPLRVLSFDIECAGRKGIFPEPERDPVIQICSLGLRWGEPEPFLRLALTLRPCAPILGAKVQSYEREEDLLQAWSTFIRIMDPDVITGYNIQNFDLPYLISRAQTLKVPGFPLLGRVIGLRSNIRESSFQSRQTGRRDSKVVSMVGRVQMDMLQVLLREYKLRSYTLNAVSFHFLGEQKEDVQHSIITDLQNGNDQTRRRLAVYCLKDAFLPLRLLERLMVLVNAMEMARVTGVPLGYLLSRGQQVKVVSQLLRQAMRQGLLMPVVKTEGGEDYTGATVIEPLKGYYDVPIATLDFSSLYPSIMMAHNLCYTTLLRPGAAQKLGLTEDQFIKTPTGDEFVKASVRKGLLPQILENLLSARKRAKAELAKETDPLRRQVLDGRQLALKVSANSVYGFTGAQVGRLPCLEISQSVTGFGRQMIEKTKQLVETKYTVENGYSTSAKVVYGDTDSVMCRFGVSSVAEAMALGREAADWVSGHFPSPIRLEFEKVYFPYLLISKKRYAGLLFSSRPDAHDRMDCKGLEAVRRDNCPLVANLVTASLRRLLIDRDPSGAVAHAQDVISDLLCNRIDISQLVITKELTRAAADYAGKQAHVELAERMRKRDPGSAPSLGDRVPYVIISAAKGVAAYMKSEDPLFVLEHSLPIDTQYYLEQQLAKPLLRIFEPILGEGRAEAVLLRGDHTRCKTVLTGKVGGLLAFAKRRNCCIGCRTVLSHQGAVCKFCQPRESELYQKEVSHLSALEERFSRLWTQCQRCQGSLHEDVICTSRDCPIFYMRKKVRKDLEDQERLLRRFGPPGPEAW
T1 sequence (P49004 whole entry, stated change not applied, chain 2 of 2): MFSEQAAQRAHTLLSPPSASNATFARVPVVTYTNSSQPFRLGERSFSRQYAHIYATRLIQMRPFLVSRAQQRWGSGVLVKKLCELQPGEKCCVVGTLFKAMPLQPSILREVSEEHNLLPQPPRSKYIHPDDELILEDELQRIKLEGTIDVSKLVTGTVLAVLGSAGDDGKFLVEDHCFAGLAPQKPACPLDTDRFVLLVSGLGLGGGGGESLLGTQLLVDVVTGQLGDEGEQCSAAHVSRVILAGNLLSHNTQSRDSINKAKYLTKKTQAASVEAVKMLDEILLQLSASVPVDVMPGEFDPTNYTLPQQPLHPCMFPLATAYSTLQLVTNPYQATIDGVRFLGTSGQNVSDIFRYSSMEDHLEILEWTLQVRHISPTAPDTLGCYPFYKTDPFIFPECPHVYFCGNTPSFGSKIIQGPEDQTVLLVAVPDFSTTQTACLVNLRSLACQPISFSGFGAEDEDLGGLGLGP
Briefly: native gel or EMSA; nondenaturing PAGE band mobility shift of 32P-labelled 30-21-mer template-primer (0.1 pmol) with 10 ng pol δ and 70 ng PCNA; without MgCl2, 3 mM EDTA in incubation and gel buffer; essentially qualitative; the complex holds DNA as well. The conditions noted are these: both partners purified.

B1: NH2-terminally his-tagged Drosophila PCNA with amino acids 119-133 replaced by the corresponding human sequence (other, Drosophila melanogaster | human, UniProt P17917 1-118, looked up)
chain: MFEARLGQATILKKILDAIKDLLNEATFDCSDSGIQLQAMDNSHVSLVSLTLRSDGFDKFRCDRNLSMGMNLGSMAKILKCANNEDNVTMKAQDNADTVTIMFESANQEKVSDYEMKLMDLDVEQLGIPEQEYSCVVRMPAMEFARICRDLAQFSESVVICCTKEGVKFSASGDVGTANIKLAQTGSVDKEEEAVIIEMQEPVTLTFACRYLNAFTKATPLSTQVQLSMCADVPLVVEYAIKDLGHIRYYLAPKIEDNET
notes: PCNA, Drosophila melanogaster, the stretch before the interdomain connector loop (up to residue 118); PCNA, Drosophila melanogaster, the stretch after the interdomain connector loop (from residue 134); source: E. coli M15 [pREP4], purified (Ni2+-IDA Sepharose); not shown: His tag, N-terminal, kept
With B1, the binding result was “binds”.

B2: NH2-terminally his-tagged Drosophila PCNA with glutamine 123 mutated to valine (natural protein, Drosophila melanogaster, UniProt P17917 1-260, looked up)
chain: MFEARLGQATILKKILDAIKDLLNEATFDCSDSGIQLQAMDNSHVSLVSLTLRSDGFDKFRCDRNLSMGMNLGSMAKILKCANNEDNVTMKAQDNADTVTIMFESANQEKVSDYEMKLMNLDVEHLGIPETDFSCVVRMPAMEFARICRDLAQFSESVVICCTKEGVKFSASGDVGTANIKLAQTGSVDKEEEAVIIEMQEPVTLTFACRYLNAFTKATPLSTQVQLSMCADVPLVVEYAIKDLGHIRYYLAPKIEDNET
notes: proliferating cell nuclear antigen (PCNA), Drosophila melanogaster, with Q123V; also called Q123V dPCNA; Q123V; source: E. coli M15 [pREP4], purified (Ni2+-IDA Sepharose); not shown: His tag, N-terminal, kept
In the case of B2, the binding result was “binds”.
